Biological target: T1, GST-Flag-SASPase 28 kDa recombinant protein (human) (UniProt Q53RT3)
T1 sequence: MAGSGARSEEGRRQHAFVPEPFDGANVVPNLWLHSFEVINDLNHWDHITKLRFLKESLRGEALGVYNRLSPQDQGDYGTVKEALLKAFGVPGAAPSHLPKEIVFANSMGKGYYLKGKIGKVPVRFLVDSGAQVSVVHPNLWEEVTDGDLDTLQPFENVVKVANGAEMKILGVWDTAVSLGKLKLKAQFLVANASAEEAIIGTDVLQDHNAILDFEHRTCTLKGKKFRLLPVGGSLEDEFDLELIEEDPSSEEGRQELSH

B1: recombinant protein FLG2Nter (aa 2-213) (domain or fragment)
chain: TDLLRSVVTVIDVFYKYTKQDGECGTLSKGELKELLEKELHPVLKNPDDPDTVDVIMHMLDRDHDRRLDFTEFLLMIFKLTMACNKVLSKEYCKASGSKKHRRGHRHQEEESETEEDEEDTPGHKSGYRHSSWSEGEEHGYSSGHSRGTVKCRHGSNSRRLGRQGNLSSSGNQEGSQKRYHRSSCGHSWSGGKDRHGSSSVELRERINKSHI
With B1 the SASPase activity on Dabcyl-QIDRIMEK-Glu(Edans)-NH2 (0.1 mM), pH 5.5, 0.5 μM SASPase 28, FLG2Nter at ratios from 1.25 to 10; fold against the protease alone was 10 fold.
